The target of the test is NOT9 module of the human CCR4-NOT complex (human) (UniProt Q92600).

B1: MBP-RNF219-C (residues 434-726) with a C-terminal StrepII tag (domain or fragment)
chain: SSNVSNKDSSEDDISRSENEKKSECFSSPKTGFWDCCSTSYAQNLDFESSEGNTIANSVGEISSKLSEKSGLCLSKRLNSIRSFEMNRTRTSSEASMDAAYLDKISELDSMMSESDNSKSPCNNGFKSLDLDGLSKSSQGSEFLEEPDKLEEKTELNLSKGSLTNDQLENGSEWKPTSFFLLSPSDQEMNEDFSLHSSSCPVTNEIKPPSCLFQTEFSQGILLSSSHRLFEDQRFGSSLFKMSSEMHSLHNHLQSPWSTSFVPEKRNKNVNQSTKRKIQSSLSSASPSKATKS
B1: the inhibition of deadenylation by 50 nM CCR4-NOT MINI (50 nM 7-mer-A20 RNA, stopped after 32 min), MBP-RNF219-C titrated 0.05-5.0 µM; inhibition already apparent at 0.05 µM stood at 2.5 µM.

The values above are taken from article PMC8660800.
